Measured values: US20180015177A1 (Genentech, published 2018)
Positions count from the first letter of the chain named. Values joined by “and” are separate entries in the source; they are usually repeats but may differ in a detail not shown here. Equal entries are not always repeated.

T1: human Ly6E, N-terminal gD-tagged, stably expressed on PC3 cells (human, UniProt Q16553 21-101)
T1 construct: GPI-linked protein on cells; also called hu Ly6E; human Ly6E transfected PC3 cells; not shown: N-terminal gD tag of the retroviral vector
T1 sequence: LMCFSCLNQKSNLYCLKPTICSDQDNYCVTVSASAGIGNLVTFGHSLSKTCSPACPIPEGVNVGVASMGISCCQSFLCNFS

B1: humanized 9B12 variant v1 (antibody, V domains shown)
VH: EVQLVESGPALVKPTQTLTLTCTFSGFSLTGYSVNWIRQPPGKALEWLGMIWGDGSTDYNSALKSRLTISKDTSKNQVVLTMTNMDPVDTATYYCARDYYFNYASWFAYWGQGTLVTVSS
VL: DIQMTQSPSSLSASVGDRVTITCSASQGISNYLNWYQQKPGKAPKLLIYYTSNLHSGVPSRFSGSGSGTDFTLTISSLQPEDFATYYCQQYSELPWTFGQGTKVEIK
notes: IgG. k1 graft / VH2 graft + 49
B2: humanized 9B12 variant v8 (antibody, V domains shown)
VH: EVQLVESGGGLVQPGGSLRLSCAASGFSLTGYSVNWVRQAPGKGLEWVGMIWGDGSTDYNSALKSRFTISRDNSKNTLYLQMNSLRAEDTAVYYCARDYYFNYASWFAYWGQGTLVTVSS
VL: B1 VL with A43T, P44V
notes: IgG. k1 graft 43+44 / VH3 graft; Residue change derived
B3: humanized 9B12 variant v23 (antibody, V domains shown)
VH: B1 VH with F24V, T73N, N76S
VL: B1 VL with F71Y
notes: IgG. k1 graft + 71 / VH2 graft + 24 + 49 + 73 + 76; Residue changes derived
B4: humanized 9B12 variant v13 (antibody, V domains shown)
VH: B2 VH
VL: B1 VL with A43T, P44V, F71Y
notes: IgG. k1 graft 43+44+71 / VH3 graft
B5: humanized 9B12 variant v20 (antibody, V domains shown)
VH: B2 VH with A24V, V48L, F67L, R71K, N76S, L78V
VL: B1 VL with A43T, P44V, F71Y
notes: IgG. k1 graft 43+44+71 / VH3 graft + 24 + 48 + 67 + 71 + 76 + 78; Residue changes derived
B6: humanized 9B12 variant v24 (antibody, V domains shown)
VH: B1 VH with F24V, I37V, T73N, N76S
VL: B1 VL with F71Y
notes: IgG. k1 graft + 71 / VH2 graft + 24 + 37 + 49 + 73 + 76; Residue changes derived
B7: humanized 9B12 variant v5 (antibody, V domains shown)
VH: B2 VH with R71K, L78V
VL: B1 VL
notes: IgG. k1 graft / VH3 graft + 71 + 78; Residue changes derived
B8: humanized 9B12 variant v19 (antibody, V domains shown)
VH: B1 VH with F24V, I37V, T73N, N76S
VL: B1 VL with A43T, P44V, F71Y
notes: IgG. k1 graft 43+44+71 / VH2 graft + 24 + 37 + 49 + 73 + 76; Residue changes derived
B9: humanized 9B12 variant v10 (antibody, V domains shown)
VH: B2 VH with R71K, L78V
VL: B1 VL with A43T, P44V
notes: IgG. k1 graft 43+44 / VH3 graft + 71 + 78; Residue changes derived
B10: humanized 9B12 variant v16 (antibody, V domains shown)
VH: B1 VH with F24V, I37V
VL: B1 VL with A43T, P44V, F71Y
notes: IgG. k1 graft 43+44+71 / VH2 graft + 24 + 37 + 49; Residue change derived
B11: humanized 9B12 variant v18 (antibody, V domains shown)
VH: B1 VH with F24V, T73N, N76S
VL: B1 VL with A43T, P44V, F71Y
notes: IgG. k1 graft 43+44+71 / VH2 graft + 24 + 49 + 73 + 76; Residue changes derived
B12: humanized 9B12 variant v11 (antibody, V domains shown)
VH: B1 VH
VL: B1 VL with A43T, P44V, F71Y
notes: IgG. k1 graft 43+44+71 / VH2 graft + 49; Residue change derived
B13: humanized 9B12 variant v22 (antibody, V domains shown)
VH: B1 VH with F24V, T73N
VL: B1 VL with F71Y
notes: IgG. k1 graft + 71 / VH2 graft + 24 + 49 + 73; Residue changes derived
B14: humanized 9B12 variant v6 (antibody, V domains shown)
VH: B1 VH
VL: B1 VL with A43T, P44V
notes: IgG. k1 graft 43+44 / VH2 graft + 49; Residue changes derived
B15: humanized 9B12 variant v21 (antibody, V domains shown)
VH: B1 VH with F24V, I37V
VL: B1 VL with F71Y
notes: IgG. k1 graft + 71 / VH2 graft + 24 + 37 + 49; Residue changes derived
B16: humanized 9B12 variant v15 (antibody, V domains shown)
VH: B2 VH with R71K, L78V
VL: B1 VL with A43T, P44V, F71Y
notes: IgG. k1 graft 43+44+71 / VH3 graft + 71 + 78; Residue changes derived
B17: humanized 9B12 variant v9 (antibody, V domains shown)
VH: B2 VH with A24V
VL: B1 VL with A43T, P44V
notes: IgG. k1 graft 43+44 / VH3 graft + 24; Residue changes derived
B18: humanized 9B12 variant v2 (antibody, V domains shown)
VH: B1 VH with F24V
VL: B1 VL
notes: IgG. k1 graft / VH2 graft + 24 + 49; Residue changes derived against v12
B19: humanized 9B12 variant v25 (antibody, V domains shown)
VH: B2 VH with A24V, V48L, F67L, R71K, N76S, L78V
VL: B1 VL with F71Y
notes: IgG. k1 graft + 71 / VH3 graft + 24 + 48 + 67 + 71 + 76 + 78; Residue changes derived
B20: humanized 9B12 variant v4 (antibody, V domains shown)
VH: B2 VH with A24V
VL: B1 VL
notes: IgG. k1 graft / VH3 graft + 24
B21: humanized 9B12 variant v17 (antibody, V domains shown)
VH: B1 VH with F24V, T73N
VL: B1 VL with A43T, P44V, F71Y
notes: IgG. k1 graft 43+44+71 / VH2 graft + 24 + 49 + 73; Residue change derived
B22: humanized 9B12 variant v14 (antibody, V domains shown)
VH: B2 VH with A24V
VL: B1 VL with A43T, P44V, F71Y
notes: IgG. k1 graft 43+44+71 / VH3 graft + 24; Residue change derived
B23: humanized 9B12 variant v7 (antibody, V domains shown)
VH: B1 VH with F24V
VL: B1 VL with A43T, P44V
notes: IgG. k1 graft 43+44 / VH2 graft + 24 + 49; Residue change derived
B24: humanized 9B12 variant v3 (antibody, V domains shown)
VH: B2 VH
VL: B1 VL
notes: Light chain changes derived

Assays:
[1] = biological target: Cynomolgus monkey Ly6E, N-terminal gD-tagged, stably expressed on PC3 cells (cynomolgus monkey); assay: Scatchard analysis on PC3 cells expressing gD-tagged cyno Ly6E (binding to the gD tag)
[2] = biological target: human Ly6E, N-terminal gD-tagged, stably expressed on PC3 cells (human) (UniProt Q16553); assay: Scatchard analysis on PC3 cells expressing gD-tagged human Ly6E (binding to the gD tag)
[3] = biological target: T1, human Ly6E, N-terminal gD-tagged, …; assay: cell-based Ly6E competitive binding assay on human Ly6E PC3 cells; competitor mouse 9B12
Experimental: (§1) Cell-based Ly6E competitive binding assay—Cultured human Ly6E transfected PC3 cells were harvested with 5 mM EDTA containing PBS. Cells were washed with PBS and added onto a 384-well high binding plate (Meso Scale Discovery Technology (MSD); Gaithersburg, Md.). The plate was kept at room temperature for 1 hr to allow cells to adhere to the plate as described (See Lu, Y., Wong, W. L. & Meng, Y. G. A high throughput electrochemiluminescent cell-binding assay for therapeutic anti-CD20 antibody selection. Journal of Immunological Methods 314, 74-79 (2006)). The plate with cells was blocked with fetal bovine serum containing PBS for 1 hr and then cooled on ice. Serially diluted antibody variant samples were mixed with equal volume of fixed concentration of mouse 9B12 Ab. The mixtures were added onto the plates and incubated at 4° C. with gentle shaking for 1 hr.
(§2) The plate was then washed with cold PBS and an anti-mouse IgG Fc specific Ab (Jackson ImmunoReserach; West Grove, Pa.) labeled with sulfo-ruthenium tag was added to the plate as the detection reagent. The plate was incubated at 4° C. with gentle shaking for 1 hr. After incubation the plate was washed again, and MSD read buffer (MSD; Gaithersburg, Md.) was added onto the wells. The plate was read with a MSD SectorÒ imager 6000. The data was graphed and analyzed using KaleidaGraph software (Synergy Software; Reading, Pa.) to determine IC₅₀ values.

[4] = biological target: T1, human Ly6E, N-terminal gD-tagged, …; assay: cell-based competitive binding on human Ly6E PC3 cells; competitor mouse 9B12
Experimental: as §1, §2

| Molecule | IC50 [4] | other results |
| --- | --- | --- |
| anti-gD mAb (antibody) |  | Kd [1]: 2 nM; Sites/Cell [1]: 53000 sites/cell; Kd [2]: 1.1 nM; Sites/Cell [2]: 13000 sites/cell |
| B1 |  | binding result [3]: no binding |
| B2 |  | binding result [3]: no binding |
| B3 | 54 nM |  |
| B4 |  | binding result [3]: no binding |
| B5 | 26 nM |  |
| B6 | 53 nM |  |
| B7 | 70 nM |  |
| B8 | 28 nM |  |
| B9 | 61 nM |  |
| B10 | 27 nM |  |
| B11 | 22 nM |  |
| B12 |  | binding result [3]: no binding |
| B13 | 59 nM |  |
| B14 |  | binding result [3]: no binding |
| B15 | 82 nM |  |
| B16 | 42 nM and 52 nM |  |
| B17 | 34 nM and 44 nM |  |
| B18 | 28 nM and 37 nM |  |
| B19 | 56 nM |  |
| B20 | 98 nM and 70 nM |  |
| B21 | 29 nM |  |
| B22 | 39 nM and 56 nM |  |
| B23 | 24 nM and 36 nM |  |
| B24 |  | binding result [3]: no binding |
